For one data set, the target named is αvβ3 integrin (Homo sapiens, UniProt P05106+P06756). The settings on record: natural ligand and inhibitor; read-out: binding affinities of αvβ3 integrin; cited from earlier work.
Data set [1] has as its system CTX-I (carboxy-terminal collagen crosslinks). In words: CTX-I serum ELISA in ovariectomized mice (bone resorption). The data set is classed as in vivo, C57 Rcc mice. Details: CTX-I serum-concentration: unit not given here. The settings on record: 0.1 mg/kg. The method, then: In order to assess the effect of M-CSF variant on bone resorption, 10 weeks old C57 Rcc mice were ovariectomized resulting in a decrease in estrogen secretion similar to what occurs in osteoporosis. Two weeks post-surgery the mice were treated with M-CSF5.6 variant in three concentrations-0.1 mg/kg, 0.5 mg/kg and 15 mg/kg, in order to test the effect on bone resorption and to find the optimal dosage. For a period of 4 days, 0.1 and 0.5 mg/kg M-CSF5.6 treated mice received subcutaneous injections twice a day, while 15 mg/kg M-CSF5.6 treated mice received a daily subcutaneous injection. Mice were sacrificed 18-24 hours after the final injection. The amounts of type I collagen fragments in the blood were measured using CTX-I (carboxy-terminal collagen crosslinks) ELISA.
Animals were randomly divided into 2 control groups (SHAM, PBS) and 4 treatment groups (0.1, 0.5 and 15 mg/kg M-CSF5.6 and 0.1 mg/kg Alendronate as positive control). Except for the SHAM group, all animals were ovariectomized. *, ^, + represent a Haemolytic-serum sample, an unsuccessful ovariectomy procedure (as determined post mortem) and an outlier, respectively. CTX-I serum-concentration values of mice with unsuccessful ovariectomy were excluded from the analysis.
On the technique in general: ELISA stands for enzyme-linked immunosorbent assay.

The target of another data set is human c-FMS (Homo sapiens, UniProt P07333). The settings on record: previously disclosed (Elegheert et al. 2012); read-out: KD of M-CSF to c-FMS receptor; cited from earlier work.
human c-FMS, sequence (P07333 20-972): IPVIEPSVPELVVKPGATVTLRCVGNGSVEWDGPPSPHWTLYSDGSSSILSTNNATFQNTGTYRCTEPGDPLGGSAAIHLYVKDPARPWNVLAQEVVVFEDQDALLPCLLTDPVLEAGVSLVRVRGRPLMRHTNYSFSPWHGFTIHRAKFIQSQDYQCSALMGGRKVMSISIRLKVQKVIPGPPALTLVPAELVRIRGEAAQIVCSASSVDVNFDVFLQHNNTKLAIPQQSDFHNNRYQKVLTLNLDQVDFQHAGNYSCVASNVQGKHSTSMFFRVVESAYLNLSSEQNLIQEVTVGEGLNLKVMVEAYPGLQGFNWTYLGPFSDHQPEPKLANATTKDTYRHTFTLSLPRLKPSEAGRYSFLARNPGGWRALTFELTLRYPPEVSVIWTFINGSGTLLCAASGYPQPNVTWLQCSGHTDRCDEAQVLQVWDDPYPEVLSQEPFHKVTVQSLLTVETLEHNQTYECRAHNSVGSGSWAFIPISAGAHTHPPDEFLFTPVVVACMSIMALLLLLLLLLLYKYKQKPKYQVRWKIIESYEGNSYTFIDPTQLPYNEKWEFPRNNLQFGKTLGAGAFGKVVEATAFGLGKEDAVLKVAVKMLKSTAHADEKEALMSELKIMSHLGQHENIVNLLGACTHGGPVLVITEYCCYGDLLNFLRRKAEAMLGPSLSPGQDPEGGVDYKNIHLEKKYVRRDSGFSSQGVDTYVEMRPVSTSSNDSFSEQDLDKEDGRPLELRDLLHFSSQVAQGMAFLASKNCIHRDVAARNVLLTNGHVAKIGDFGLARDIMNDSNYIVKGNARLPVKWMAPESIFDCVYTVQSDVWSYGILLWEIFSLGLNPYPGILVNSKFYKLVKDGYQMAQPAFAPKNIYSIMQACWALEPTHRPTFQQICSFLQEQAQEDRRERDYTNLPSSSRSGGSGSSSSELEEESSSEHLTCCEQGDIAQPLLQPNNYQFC
A short description of data set [2]: BS^3 chemical cross linking / SDS-PAGE dimerization assay. The data set is classed as physicochemical. The method, then: Then, Tris was added to a final concentration of 30 mM and the mixture was incubated for 15 min at room temperature. Samples were denaturized and loaded on 15% SDS-PAGE. The gels were stained with coomassie blue (InstantBlue, Expedeon, CA, USA) and visualized with MiniBis pro (DNR Bio-Imaging Systems, Jerusalem, Israel).
BS^3 crosslinking assay—Human (4 μg) and murine M-CSFWT (1 μg), M-CSFC31S (1 μg) and M-CSFC31S,M27R (2.5 μg) were incubated with different concentrations of BS^3 [bis(sulfosuccinimidyl)suberate] (ThermoFisher Scientific, MA, USA) cross linker (0, 25 μM, 100 μM, 250 μM, 500 μM, 1000 μM and 2500 μM) for 30 min at room temperature. Then, […] was added to a final concentration of 30 mM, and the mixture was incubated for 15 min at room temperature. Samples were denaturized with sample buffer, boiled, and loaded on 15% SDS-PAGE for protein separation. The gels were stained with InstantBlue staining (Expedeon, CA, USA) for 40 min, followed by two washing steps with double distilled water. The gels were visualized with MiniBis pro (DNR Bio-Imaging Systems, Jerusalem, Israel).
Experiments were conducted in order to verify that the purified variants are incapable of dimerizing. The purified variants were incubated with a cross linker reagent (BS^3 [bis(sulfosuccinimidyl)suberate]) to enhance and visualize non-covalent intermolecular interactions. Following incubation, the reactions were stopped and the samples were loaded in denaturized conditions on a protein gel.
To validate the structural and computational analysis and to verify that M-CSFC31S,M27R is indeed a monomer, several biophysical assays were conducted. First, purified murine and human M-CSFWT, M-CSFC31S and M-CSFC31S,M27R were crosslinked via lysine residues using different amounts of BS^3 reagent [bis(sulfosuccinimidyl)suberate], and the proteins sizes were evaluated using SDS-PAGE (FIG. 16A). Murine M-CSFWT served as positive control, since it has a lysine in the dimerization site (K68), which facilitates the intermolecular cross-linking of the two monomers in the dimer. […] The dimer band became more prominent at higher BS^3 concentrations. It is likely that the non-covalent dimerization allows other lysines in M-CSFC31S to come into close proximity and crosslink.

For a further data set, the system named is mature osteoclasts. In words: Actin ring formation in mature osteoclasts. The settings on record: inhibitors 5 μM added to mature osteoclasts for 24 h; F-actin staining. The data set is classed as cell-based, mouse. As for the experimental part: FIG. 23 are example pictures showing Actin ring formation in mature osteoclasts incubated with M-CSFRGD variants. Murine BMMs were allowed to differentiate into osteoclasts in the presence of M-CSF and RANKL for 72 h. Then, the cells were incubated for additional 24 h without (positive control) or with inhibitors (5 μM) followed by fixation and staining for F-actin and nuclei. Cells were able to form a solid actin ring (white arrowheads), scattered actin ring (white arrows) or amorphous actin distribution (barbed arrowheads). Pictures are representatives of 35 images acquired from five different wells per sample.
For a mature osteoclast to resorb bone properly, it must form unique structure termed “sealing zone”; this structure consists of an actin ring made from a dense actin mesh connected by adhesion complexes called podosomes. The formation of the actin ring involves several stages: at the beginning, podosomes are formed throughout the cell in a scattered manner, then groups of podosomes form small actin structures named belts and upon osteoclast maturation, the belts are moving to the cell periphery, cluster, and form the actin ring. Podosomes contain high levels of αvβ3 integrin which is essential for the formation of a proper actin ring with condensed podosome network. […]

The values below come from patent US11976099B2, “Compositions and methods for treatment of bone associated diseases” (THE NATIONAL INSTITUTE FOR BIOTECHNOLOGY IN THE NEGEV LTD., priority 2016, dated 2024).

Several values for one entry are separate records, joined by “and”; a condition that tells them apart may be missing. Identical values can stand only once.

αvβ3 integrin, sequence (P06756 31-1048): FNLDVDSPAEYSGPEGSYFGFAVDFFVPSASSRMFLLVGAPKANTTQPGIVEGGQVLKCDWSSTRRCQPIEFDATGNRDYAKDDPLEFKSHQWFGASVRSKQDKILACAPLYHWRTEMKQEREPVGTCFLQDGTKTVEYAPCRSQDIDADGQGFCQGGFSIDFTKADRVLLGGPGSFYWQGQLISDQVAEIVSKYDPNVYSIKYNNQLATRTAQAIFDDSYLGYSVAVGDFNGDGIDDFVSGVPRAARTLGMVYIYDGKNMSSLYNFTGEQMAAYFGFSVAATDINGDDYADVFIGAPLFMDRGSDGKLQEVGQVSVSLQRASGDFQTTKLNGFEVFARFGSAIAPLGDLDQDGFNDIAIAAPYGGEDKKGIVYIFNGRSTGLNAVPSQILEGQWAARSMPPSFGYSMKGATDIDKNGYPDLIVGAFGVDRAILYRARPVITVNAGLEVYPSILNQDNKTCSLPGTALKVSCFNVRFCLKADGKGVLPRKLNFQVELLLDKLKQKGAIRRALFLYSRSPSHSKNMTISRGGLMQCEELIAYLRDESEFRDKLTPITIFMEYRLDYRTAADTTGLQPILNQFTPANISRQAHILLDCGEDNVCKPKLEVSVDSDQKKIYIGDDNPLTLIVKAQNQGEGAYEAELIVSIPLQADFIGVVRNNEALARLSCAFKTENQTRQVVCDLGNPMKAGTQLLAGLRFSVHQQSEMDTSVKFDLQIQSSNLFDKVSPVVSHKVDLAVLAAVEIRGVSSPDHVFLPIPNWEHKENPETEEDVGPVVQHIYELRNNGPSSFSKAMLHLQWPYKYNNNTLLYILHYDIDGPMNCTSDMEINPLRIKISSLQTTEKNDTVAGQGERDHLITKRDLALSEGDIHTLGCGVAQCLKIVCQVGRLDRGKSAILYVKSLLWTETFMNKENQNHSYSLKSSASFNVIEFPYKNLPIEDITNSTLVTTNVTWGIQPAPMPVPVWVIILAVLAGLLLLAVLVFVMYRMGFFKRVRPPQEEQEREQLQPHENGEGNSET
αvβ3 integrin, sequence (P05106 27-788): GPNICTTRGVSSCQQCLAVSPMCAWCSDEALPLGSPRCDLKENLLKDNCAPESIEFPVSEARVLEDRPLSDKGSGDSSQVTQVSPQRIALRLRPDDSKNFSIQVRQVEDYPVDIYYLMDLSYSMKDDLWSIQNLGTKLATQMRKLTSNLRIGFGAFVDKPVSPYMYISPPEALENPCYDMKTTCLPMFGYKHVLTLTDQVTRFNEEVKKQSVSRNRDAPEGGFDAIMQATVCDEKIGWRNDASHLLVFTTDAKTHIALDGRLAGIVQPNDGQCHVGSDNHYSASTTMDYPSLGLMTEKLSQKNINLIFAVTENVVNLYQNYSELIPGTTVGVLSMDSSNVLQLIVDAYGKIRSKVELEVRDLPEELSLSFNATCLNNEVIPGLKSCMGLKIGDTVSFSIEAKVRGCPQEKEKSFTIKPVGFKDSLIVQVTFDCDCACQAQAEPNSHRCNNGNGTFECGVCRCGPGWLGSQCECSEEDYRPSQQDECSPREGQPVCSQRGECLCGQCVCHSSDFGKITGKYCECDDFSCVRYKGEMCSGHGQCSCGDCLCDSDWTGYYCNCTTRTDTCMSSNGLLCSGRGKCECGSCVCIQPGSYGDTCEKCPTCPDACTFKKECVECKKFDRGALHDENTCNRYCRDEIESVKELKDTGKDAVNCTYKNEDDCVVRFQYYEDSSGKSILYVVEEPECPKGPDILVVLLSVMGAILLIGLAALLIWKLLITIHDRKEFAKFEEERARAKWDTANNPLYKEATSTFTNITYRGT

As for cRGDfV [reference compound], the Kd at αvβ3 integrin is 158 nM. Take `NCCCC(O)(P(=O)(O)O)P(=O)(O)O` [Alendronate, reference compound]: the “change in CTX-I levels compared to the PBS treated animals” value in data set [1] is reported as “significant decrease in CTX-I levels”. Further, the CTX-I serum-concentration in data set [1] (individual animals n 1-6, * haemolytic sample) was 25.4 and 20.03* and 18.21* and 27.86* and 19.1 and 20.9. Regarding “vitronectin: one of the ligands of αvβ3 integrin”, the Kd in the data set with αvβ3 integrin is 40.7 nM.

B1: M-CSF: native monocyte/macrophage colony stimulating factor, natural ligand of c-FMS (Uniprot P09603) (protein, UniProt P09603 33-554, looked up)
Macrophage colony-stimulating …: EEVSEYCSHMIGSGHLQSLQRLIDSQMETSCQITFEFVDQEQLKDPVCYLKKAFLLVQDIMEDTMRFRDNTPNAIAIVQLQELSLRLKSCFTKDYEEHDKACVRTFYETPLQLLEKVKNVFNETKNLLDKDWNIFSKNCNNSFAECSSQDVVTKPDCNCLYPKAIPSSDPASVSPHQPLAPSMAPVAGLTWEDSEGTEGSSLLPGEQPLHTVDPGSAKQRPPRSTCQSFEPPETPVVKDSTIGGSPQPRPSVGAFNPGMEDILDSAMGTNWVPEEASGEASEIPVPQGTELSPSRPGGGSMQTEPARPSNFLSASSPLPASAKGQQPADVTGTALPRVGPVRPTGQDWNHTPQKTDHPSALLRDPPEPGSPRISSLRPQGLSNPSTLSAQPQLSRSHSSGSVLPLGELEGRRSTRDRRSPAEPEGGPASEGAARPLPRFNSVPLTDTGHERQSEGSFSPQLQESVFHLLVPSVILVLLAVGGLLFYRWRRRSHQEPQRADSPLEQPEGSPLTQDDRQVELPV
Consider B1, for which, in the data set with human c-FMS, the Kd is 13.6 nM.

B2: murine M-CSFWT: wild-type murine M-CSF, positive control in cross-linking (protein)
chain: KEVSEHCSHMIGNGHLKVLQQLIDSQMETSCQIAFEFVDQEQLDDPVCYLKKAFFLVQDIIDETMRFKDNTPNANATERLQELSNNLNSCFTKDYEEQNKACVRTFHETPLQLLEKIKNFFNETKNLLEKDWNIFTKNCNNSFAKCSSRDVVTKPDCNCLYPKATPSSDPASASPHQPPAPSMAPLAGLAWDDSQRTEGSSLLPSELPLRIEDPGSAKQRPPR
Turning to B2, the “monomer/dimer bands after BS^3 cross linking” value in data set [2] (Example 11, BS^3 0-2500 μM, SDS-PAGE, FIG. 16A) is listed as “almost entirely in a band with a molecular weight that fits the dimer size”.

B3: M-CSFαvβ3: variant 4.22 with histidine to alanine mutations at positions 9 and 15; binds αvβ3 integrin but not c-FMS (protein)
chain: EEVSEYCSAMIGSGALQSLQRLIDQTSRGDSPSITFEFVDQEQLKDPVCYLKKAFLLVQDIMEDTMRFRDNTPNAIAIVQLQELSLRLKSCFTKDYEEHDKACVRTFYETPLQLLEKVKNVFNETKNLLDKDWNIFSKNCNNSFAECSSQGHERQSEGS
modifications: left off: small tags and cut ends
With B3, in the data set with mature osteoclasts, the actin ring formation entry is “decreased the condensation and density of podosomes”. Besides, the “dimerization after BS^3 cross linking” value in data set [2] (Example 4, BS^3 up to 2500 μM, FIG. 8) is reported as “did not show any dimerization”.
